Data set [1] deals with A431 cells. More on the design: method as in PMID 16766609. The note with it: doses greater than ~1000 nM; cited from earlier work.
Data set [2] has as its system endogenous PAR1 and PAR2 in A431 cells. Nature of the data set: Fluo-3 Ca2+ mobilization (Ca2+ flux) assay in quiescent A431 cells. Format: cell-based, human. On the procedure: (§1) Human epidermoid carcinoma A431 cells ([…]) were grown in Dulbecco's modified Eagle's medium (DMEM) supplemented with 10% fetal bovine serum (FBS), 4.5 g/liter glucose, 2 mM glutamine, and antibiotics. ~5 × 10^4 cells at passage 3 to 8 suspended in 200 μl the DMEM medium containing 10% FBS were placed in each well of a 96well microplate, and were cultured at 37°C under air/5% CO2 for ~2 days, followed by ~20 hr starvation through continuously culturing in the serum-free DMEM.
Cells were grown in Costar™ 96well clear cell culture microplates. After starvation, the cells were washed with 1× HBSS (1× regular Hank's balanced salt solution, 20 mM HEPES buffer, pH 7.0) in the presence of 2.5 mM probenicid, and labeled in the same buffer containing 4 μM Fluo-3 for 1 hour at room temperature. The cells were then washed twice with buffer, maintained with 100 μl 1× HBSS containing 2.5 mM probenicid. The assay was initiated by transferring 50 μl PAR agonist solution to the cell plate, and calcium signal was recorded over 6 minutes with a 6 sec interval using HTS7000 BioAssay Reader (PerkinElmer Life Science, Boston, MA). The fluorescent intensity before stimulation was recorded and used as a baseline. The percentage increase in fluorescence intensity after stimulation, relative to the baseline fluorescence, was analyzed and used directly as a measure for the increase of intracellular Ca^2+ level induced by PAR agonists.
(§2) Unless specifically mentioned, three replicates were carried out for each measurement or each compound. The standard deviation was derived from these measurements (n = 3). […] All dose-dependent responses were analyzed using non-linear regression method with the Prism software (Graph Pad).

Data set [3] shares this test system. Nature of the data set: MRCAT resonant waveguide grating biosensor DMR assay in quiescent A431 cells. The class given is cell-based, human. The note with it: for EC50: A431 cells. On the procedure: as §1
Corning® Epic™ angular interrogation system with transverse magnetic or p-polarized TM0 mode was used for all studies. The detailed instrumental setup and assay protocols had been previously described. Briefly, all compound solutions were prepared using 1 × HBSS containing minimal amount of dimethyl sulfoxide, while the starved cells were washed and maintained with 100 μl the serum-free DMEM. The cells were then treated with 50 μl 1 × HBSS buffered solution in the absence and presence of a compound, followed by stimulation with ligand solutions. The cellular responses were monitored in real time throughout the assays.
as §2

B1: Trypsin: serine protease, PAR2 agonist, purchased from Sigma (protein, UniProt P00760 24-246, looked up)
Serine protease 1: IVGGYTCGANTVPYQVSLNSGYHFCGGSLINSQWVVSAAHCYKSGIQVRLGEDNINVVEGNEQFISASKSIVHPSYNSNTLNNDIMLIKLKSAASLNSRVASISLPTSCASAGTQCLISGWGNTKSSGTSYPDVLKCLKAPILSDSSCKSAYPGQITSNMFCAGYLEGGKDSCQGDSGGPVVCSGKLQGIVSWGSGCAQKNKPGVYTKVCNYVSWIKQTIASN
Turning to B1, the cell detachment entry in data set [1] was “significant cell detachment”. Besides, the “maximal [Ca^2+]i elevation” value in data set [2] (A431 cells, SFLLR-amide at 80 μM) is 100 ± 6%. For the same molecule, the EC50 in data set [2] (A431 cells, read-out: EC50 (n = 3) Ca^2+ flux assay) was 45.7 ± 5.8 nM; in data set [3] (amplitude of N-DMR event, read-out: EC50 (n = 3) N-DMR), 102 ± 21.9 nM; in data set [3] (amplitude of P-DMR event, read-out: EC50 (n = 3) P-DMR), 98 ± 27.8 nM. For the same molecule, the “responsiveness (Ca^2+ mobilization) after pre-stimulation with thrombin” value in data set [2] (thrombin 40 unit/ml first, separated by 6 min) is recorded as “only partially”. The “Ca^2+ mobilization response after pre-stimulation with trypsin” value in data set [2] (trypsin 200 nM first, repeated stimulation separated by 6 min) is on record as “completely blocked”. Further, in data set [3] (trypsin 200 nM first, repeated stimulation separated by ~1 hr), the “desensitization of trypsin-treated cells (DMR signal)” value is recorded as “completely desensitized”.

The values are drawn from publication PMC1925066, “Optical biosensor differentiates signaling of endogenous PAR1 and PAR2 in A431 cells” (BMC Cell Biology, 2007).
